Assay results reported in the supplement of paper PMC11246515.
± gives the standard deviation of the averaged measurements.

Test: total protein half-life in vivo (active degradation + dilution); higher = more stable protein
[1] = wild type E. coli NCM3722, growth: C-lim chemostat, doubling time 6 h
[2] = wild type E. coli NCM3722, growth: C-lim chemostat, doubling time 12 h
[3] = wild type E. coli NCM3722, growth: N-lim chemostat, doubling time 12 h
[4] = E. coli NCM3722 delta-clpP delta-lon delta-hslV, growth: N-lim chemostat, doubling time 6 h
[5] = E. coli NCM3722 delta-clpP, growth: N-lim chemostat, doubling time 6 h
[6] = E. coli NCM3722 delta-hslV, growth: N-lim chemostat, doubling time 6 h
[7] = E. coli NCM3722 delta-lon, growth: N-lim chemostat, doubling time 6 h
[8] = E. coli NCM3722 delta-smpB, growth: N-lim chemostat, doubling time 6 h
[9] = wild type E. coli NCM3722, growth: C-lim chemostat, doubling time 3 h
[10] = wild type E. coli NCM3722, growth: N-lim chemostat, doubling time 6 h
[11] = wild type E. coli NCM3722, growth: P-lim chemostat, doubling time 6 h
[12] = wild type E. coli NCM3722, growth: P-lim chemostat, doubling time 12 h

| Sequence | total protein half-life in vivo [1] [h] | total protein half-life in vivo [2] [h] | total protein half-life in vivo [3] [h] | total protein half-life in vivo [4] [h] | total protein half-life in vivo [5] [h] | total protein half-life in vivo [6] [h] | total protein half-life in vivo [7] [h] | total protein half-life in vivo [8] [h] | total protein half-life in vivo [9] [h] | total protein half-life in vivo [10] [h] | total protein half-life in vivo [11] [h] | total protein half-life in vivo [12] [h] |
| --- | --- | --- | --- | --- | --- | --- | --- | --- | --- | --- | --- | --- |
| MGNTSIQTQSYRAVDKDAGQSRSYIIPFALLCSLFFLWAVANNLNDILLPQFQQAFTLTNFQAGLIQSAFYFGYFIIPIPAGILMKKLSYKAGIITGLFLYALGAALFWPAAEIMNYTLFLVGLFIIAAGLGCLETAANPFVTVLGPESSGHFRLNLAQTFNSFGAIIAVVFGQSLILSNVPHQSQDVLDKMSPEQLSAYKHSLVLSVQTPYMIIVAIVLLVALLIMLTKFPALQSDNHSDAKQGSFSASLSRLARIRHWRWAVLAQFCYVGAQTACWSYLIRYAVEEIPGMTAGFAANYLTGTMVCFFIGRFTGTWLISRFAPHKVLAAYALIAMALCLISAFAGGHVGLIALTLCSAFMSIQYPTIFSLGIKNLGQDTKYGSSFIVMTIIGGGIVTPVMGFVSDAAGNIPTAELIPALCFAVIFIFARFRSQTATN | 3.02 | 4.27 ± 0.49 |  |  |  |  |  |  |  |  |  |  |
| MVWIDYAIIAVIAFSSLVSLIRGFVREALSLVTWGCAFFVASHYYTYLSVWFTGFEDELVRNGIAIAVLFIATLIVGAIVNFVIGQLVEKTGLSGTDRVLGVCFGALRGVLIVAAILFFLDSFTGVSKSEDWSKSQLIPQFSFIIRCFFDYLQSSSSFLPRA |  |  | 7.81 |  |  |  |  |  |  |  |  |  |
| MKRFSLAILALVVATGAQAASEKVEMNLVTSQGVGQSIGSVTITETDKGLEFSPDLKALPPGEHGFHIHAKGSCQPATKDGKASAAESAGGHLDPQNTGKHEGPEGAGHLGDLPALVVNNDGKATDAVIAPRLKSLDEIKDKALMVHVGGDNMSDQPKPLGGGGERYACGVIK [P0AGD1] | 6.27 ± 0.81 | 10 ± 1.8 | 11.8 ± 1.3 | 5.72 ± 1.6 | 6.84 ± 0.29 | 6.36 ± 0.53 | 6.86 ± 0.16 | 5.11 ± 0.17 | 2.81 ± 0.45 | 6.57 ± 0.63 | 5.69 ± 0.66 | 11 ± 0.99 |
| MNLLIDNWIPVRPRNGGKVQIINLQSLYCSRDQWRLSLPRDDMELAALALLVCIGQIIAPAKDDVEFRHRIMNPLTEDEFQQLIAPWIDMFYLNHAEHPFMQTKGVKANDVTPMEKLLAGVSGATNCAFVNQPGQGEALCGGCTAIALFNQANQAPGFGGGFKSGLRGGTPVTTFVRGIDLRSTVLLNVLTLPRLQKQFPNESHTENQPTWIKPIKSNESIPASSIGFVRGLFWQPAHIELCDPIGIGKCSCCGQESNLRYTGFLKEKFTFTVNGLWPHPHSPCLVTVKKGEVEEKFLAFTTSAPSWTQISRVVVDKIIQNENGNRVAAVVNQFRNIAPQSPLELIMGGYRNNQASILERRHDVLMFNQGWQQYGNVINEIVTVGLGYKTALRKALYTFAEGFKNKDFKGAGVSVHETAERHFYRQSELLIPDVLANVNFSQADEVIADLRDKLHQLCEMLFNQSVAPYAHHPKLISTLALARATLYKHLRELKPQGGPSNG | 3.27 | 6.24 |  | 5.99 ± 0.51 |  |  |  | 2.728 ± 0.0011 |  |  | 2.97 | 6.78 ± 1.8 |
| MSLNLVSEQLLAANGLKHQDLFAILGQLAERRLDYGDLYFQSSYHESWVLEDRIIKDGSYNIDQGVGVRAISGEKTGFAYADQISLLALEQSAQAARTIVRDSGDGKVQTLGAVEHSPLYTSVDPLQSMSREEKLDILRRVDKVAREADKRVQEVTASLSGVYELILVAATDGTLAADVRPLVRLSVSVLVEEDGKRERGASGGGGRFGYEFFLADLDGEVRADAWAKEAVRMALVNLSAVAAPAGTMPVVLGAGWPGVLLHEAVGHGLEGDFNRRGTSVFSGQVGELVASELCTVVDDGTMVDRRGSVAIDDEGTPGQYNVLIENGILKGYMQDKLNARLMGMTPTGNGRRESYAHLPMPRMTNTYMLPGKSTPQEIIESVEYGIYAPNFGGGQVDITSGKFVFSTSEAYLIENGKVTKPVKGATLIGSGIETMQQISMVGNDLKLDNGVGVCGKEGQSLPVGVGQPTLKVDNLTVGGTA [P0AGG8] | 5.14 ± 0.45 | 8.1 ± 0.85 | 6.45 ± 0.19 | 5.22 ± 1.1 | 3.75 ± 0.12 | 3.805 ± 0.0063 | 4.52 ± 0.13 | 3.73 ± 0.064 | 2.74 ± 0.14 | 3.88 ± 0.13 | 5.11 ± 0.16 | 11 ± 1.7 |
| MSLLAQLDQKIAANGGLIVSCQPVPDSPLDKPEIVAAMALAAEQAGAVAIRIEGVANLQATRAVVSVPIIGIVKRDLEDSPVRITAYIEDVDALAQAGADIIAIDGTDRPRPVPVETLLARIHHHGLLAMTDCSTPEDGLACQKLGAEIIGTTLSGYTTPETPEEPDLALVKTLSDAGCRVIAEGRYNTPAQAADAMRHGAWAVTVGSAITRLEHICQWYNTAMKKAVL [P0A761] | 5.06 ± 0.56 | 10.3 ± 1.4 | 7.56 |  | 5.64 | 3.95 | 4.21 ± 0.027 | 4.27 | 2.9 ± 0.27 | 4.14 ± 0.36 | 5.84 ± 1 | 9.47 ± 0.41 |
| MNIFEQTPPNRRRYGLAAFIGLIAGVVSAFVKWGAEVPLPPRSPVDMFNAACGPESLIRAAGQIDCSRNFLNPPYIFLRDWLGLTDPNAAVYTFAGHVFNWVGVTHIIFSIVFAVGYCVVAEVFPKIKLWQGLLAGALAQLFVHMISFPLMGLTPPLFDLPWYENVSEIFGHLVWFWSIEIIRRDLRNRITHEPDPEIPLGSNR [P0AAA1] | 6.707 ± 0.0077 | 14.5 ± 0.3 |  | 6.706 ± 0.025 |  |  | 6.72 ± 0.32 | 6.16 ± 0.29 | 3.21 ± 0.28 | 5.96 ± 0.12 | 6.57 ± 1.5 | 13.7 ± 1.1 |
| MYDYIIVGSGLFGAVCANELKKLNKKVLVIEKRNHIGGNAYTEDCEGIQIHKYGAHIFHTNDKYIWDYVNDLVEFNRFTNSPLAIYKDKLFNLPFNMNTFHQMWGVKDPQEAQNIINAQKKKYGDKVPENLEEQAISLVGEDLYQALIKGYTEKQWGRSAKELPAFIIKRIPVRFTFDNNYFSDRYQGIPVGGYTKLIEKMLEGVDVKLGIDFLKDKDSLASKAHRIIYTGPIDQYFDYRFGALEYRSLKFETERHEFPNFQGNAVINFTDANVPYTRIIEHKHFDYVETKHTVVTKEYPLEWKVGDEPYYPVNDNKNMELFKKYRELASREDKVIFGGRLAEYKYYDMHQVISAALYQVKNIMSTD |  |  |  | 6.0745 ± 0.0011 | 3.11 |  | 4.59 ± 0.33 | 2.83 ± 0.48 |  | 3.52 |  | 11.8 |
| MRSPICHLFSAINSSPFKIAPEKEQDLKTIVDDKKIIISVVSEPGFNIRVRKNESNNSHEIVLTVASLEYIWAFSNFFWVFTQEYSKSQKNNDEHFDLTGKNRLKKSDELLKWARKNLQTTGCESWPKKCPKPEAYLQGSEDSQVASEIFLCAIAWILHHEISHVVLQHPLVTTAFSTQEEREADSHATKWILGNLYESAPELKKRALGIATAVLCIQSLEVENYFCLQNTHPAAYERIYSNISCYPVGNEELIEALCTVMLQYLFHGKNINVNLDGESFSSILGDLLCDISRLTSN |  |  |  | 4.49 ± 0.37 |  |  |  | 1.26 |  |  |  |  |
